Among the data in article PMC2864300, “Regulation of NOXO1 Activity through Reversible Interactions with p22^phox and NOXA1” (PLoS ONE, 2010) are Kd values, retold here.

Test [1] has as its target human NOXO1 tandem SH3 domains (SH3AB) (human). The test can be described thus: ITC; data not shown; peptides of the human NOXO1 C-terminal tail titrated against human NOXO1 SH3 domains.
The target is the same in test [2]. The test can be described thus: ITC; MicroCal VP-ITC, 18°C; 150 mM NaCl, 1 mM DTT, 50 mM HEPES pH 7.4; typically 20–40 µM protein in the cell, 200–300 µM ligand injected; single-site binding model; averaged over three to five experiments.

B1: peptideA (amino acids 319–347 of human NOXO1) (peptide)
peptide: TAPPPTVPTRPSPGAIQSRCCTVTRRALE
With B1, the Kd in test [1] worked out at 50 µM.

B2: shorter version of peptideA, which only contains the proline rich region (peptide)
peptide: TAPPPTVPTRPS
Take B2: the equilibrium dissociation constant (Kd) in test [2] stood at 50 µM.
